Measured values: US20170183660, “APTAMER TARGETING MAGE-A3 PEPTIDE AND USES THEREOF” (Academia Sinica, published 2017)

T1: NY-ESO-1 peptide 87-111 (UniProt P78358 P78358:87-111)
T1 chain: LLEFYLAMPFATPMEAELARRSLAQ

T2: NY-ESO-1 peptide 157-170 (UniProt P78358 P78358:157-170)
T2 chain: SLLMWITQCFLPVF

T3: MAGE-A3 peptide 111-125 (unmodified) (UniProt P43357)
T3 chain: RKVAELVHFLLLKYR


Legend:
[1] = biological target: T1, NY-ESO-1 peptide 87-111; assay: pulldown; specificity control peptide; conditions: protein: synthetic; tags: peptide (synthetic, inferred), streptavidin beads
[2] = biological target: T2, NY-ESO-1 peptide 157-170; assay: pulldown; specificity control peptide; conditions: protein: synthetic; tags: peptide (synthetic, inferred), streptavidin beads
[3] = biological target: NY-ESO-1 peptide 119-143 (UniProt P78358 P78358:119-143); assay: pulldown; specificity control peptide; conditions: protein: synthetic; tags: peptide (synthetic, inferred), streptavidin beads
[4] = biological target: T3, MAGE-A3 peptide 111-125 (unmodified); assay: ITC; 25 C, DPBS with 0.45% glucose, 5 mM MgCl2; dH -24 kcal/mol; conditions: protein: synthetic; tags: none; peptide (synthetic, inferred)
Procedure: (§1) Thermodynamic profile of the interaction between DNA and peptide was measured with a MicroCal iTC₂₀₀ (GE Healthcare Life Sciences) at 25° C. in washing buffer (0.45% glucose, 5 mM MgCl₂, in Dulbecco's Phosphate-Buffered Saline). The unmodified MAGE-A3₁₁₁₋₁₂₅ peptide (0.3 mM, 200 μl) was titrated with 18 successive injections of 2 μl aptamer (0.1 mM) at 150 s intervals. The data were analyzed using MicroCal Origin 7 and fit with a one-set-of sites binding model to obtain values of enthalpy change (AH) and association constant (Kₐ).

[5] = biological target: T3, MAGE-A3 peptide 111-125 (unmodified); assay: ITC; 25 C, DPBS with 0.45% glucose, 5 mM MgCl2; dH -41 kcal/mol; conditions: protein: synthetic; tags: none; peptide (synthetic, inferred)
Procedure: as §1

Row | Binder | binding result [1] | binding result [2] | binding result [3] | Kd [4] | Kd [5]
1 | Ap52 (ssDNA) DNA: ATCCAGAGTGACGCAGCAAGCACTCAATATTCCCTGGACACGGTGGCTTAGT | no binding | no binding | no binding | 57 nM | 
2 | AGCACTCAATATTCCC (ssDNA) [Ap16] |  |  |  |  | 95 nM
